Measured values: patent US20230349919A1 (Regeneron, published 2023)

Assays:
Der f 1 [1] = target: T1, Der f 1 (house dust mite, UniProt P16311 99-321); test: barcode rank score against control Ole e 1
T1 construct: Also used oligonucleotide-barcoded for cell staining
T1 sequence (looked up): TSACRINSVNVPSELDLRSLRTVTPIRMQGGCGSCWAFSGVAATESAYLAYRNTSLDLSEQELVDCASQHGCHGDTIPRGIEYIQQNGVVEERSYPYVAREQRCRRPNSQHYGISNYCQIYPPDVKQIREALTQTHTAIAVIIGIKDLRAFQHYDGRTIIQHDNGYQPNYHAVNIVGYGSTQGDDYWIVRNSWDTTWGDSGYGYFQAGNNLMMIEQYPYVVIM

Der p 2 [2] = target: T2, Der p 2 (house dust mite, UniProt P49278 18-146); test: barcode rank score against control Ole e 1
T2 construct: Also used oligonucleotide-barcoded for cell staining
T2 sequence (looked up): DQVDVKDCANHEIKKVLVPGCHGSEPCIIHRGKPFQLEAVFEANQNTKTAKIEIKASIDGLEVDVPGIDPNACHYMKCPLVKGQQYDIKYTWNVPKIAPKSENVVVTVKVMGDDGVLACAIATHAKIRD

Der f 1 [3] = target: T1, Der f 1; test: ELISA, coated Der f1
Procedure: (§1) After selecting allergen-specific antibodies, relative binding to Der p 1, Der p 2, and Der f 1 were quantified by ELISA. […] Specifically, binding microtiter plates were coated with 100 μl of 2 μg/mL of natural Der p 1, Der p 2, Der f 1, and Ole e 1 in PBS overnight at 4′C. IgE antibodies were prepared at a concentration of 1 μg/mL and serially diluted three-fold in PBS with 0.5% w/v BSA. After washing with 0.05% v/v Tween® 20 in PBS and blocking in PBS with 0.5% w/v BSA, 100 μl of the diluted IgE antibodies were transferred to the plates and incubated for one hour at ambient temperature. Subsequently, 100 μL of anti-mouse IgE antibody conjugated to horse-radish peroxidase (HRP) diluted at 1:5000 was added. The plates were then incubated for one hour at ambient temperature, and washed in 0.05% v/v/Tween® 20 in PBS. Subsequently, the HRP substrate 3,3′,5,5′-tetramethylbenzidine (TMB) was added. The reaction was stopped (with 100 μL of sulfuric acid 2.0 N) and optical density values determined using a plate reader at 450 nm.

Der p 1 [4] = target: T3, Der p 1 (house dust mite, UniProt P08176 99-320); test: ELISA, coated Der p1
T3 construct: Also used oligonucleotide-barcoded for cell staining; also called natural Der p 1
T3 sequence (looked up): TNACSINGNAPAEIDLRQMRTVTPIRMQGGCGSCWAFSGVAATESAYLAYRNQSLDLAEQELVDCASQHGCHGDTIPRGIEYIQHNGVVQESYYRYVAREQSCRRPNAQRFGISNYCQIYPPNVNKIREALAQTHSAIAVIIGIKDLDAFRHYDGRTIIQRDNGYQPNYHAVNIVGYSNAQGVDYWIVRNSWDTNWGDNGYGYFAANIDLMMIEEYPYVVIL
Procedure: as §1

Der p 2 [5] = target: T2, Der p 2; test: ELISA, coated Der p2
Procedure: as §1

Der f 1 [6] = target: T1, Der f 1; test: barcoded-antigen count on source cell
Der p 2 [7] = target: T2, Der p 2; test: barcoded-antigen count on source cell
Der f 1 [8] = target: T1, Der f 1; test: centered log-ratio of barcode count
Source text: (§2) The barcoded antigen library was mapped by the CellRanger software to a custom short-read reference that contained the DNA tag sequences of the four barcoded antigens, namely, Der p 1, Der p 2, Der f 1 and Ole e 1. These tag sequences were quantified across all cells and were normalized by taking the centered log-ratio (CLR) per barcoded antigen across each sample capture. In addition, background antigen signal for each barcoded antigen was removed by DSB (Denoised and Scaled by Background). Both the CLR and the DSB normalized values were used to quantify the target antigen signals, namely, those for Der p 1, Der p 2 and Der f 1, against the control signal, namely, that for Ole e 1.

Der p 2 [9] = target: T2, Der p 2; test: centered log-ratio of barcode count
Source text: as §2

Der p 1 [10] = target: T3, Der p 1; test: barcoded antigen sequencing of single IgE PCs with trapped IgE [cont.]
Source text: as §2

Der f 1 [11] = target: T1, Der f 1; test: as above
Source text: as §2

Der p 2 [12] = target: T2, Der p 2; test: as above
Source text: as §2

Der p 1 [13] = target: T3, Der p 1; test: barcoded antigen sequencing of single IgE PCs with trapped IgE
Der f 1 [14] = target: T1, Der f 1; test: as above
Der p 2 [15] = target: T2, Der p 2; test: as above
Der p 1 [16] = target: T3, Der p 1; test: antigen specificity score against Ole e 1 from barcode counts of single IgE PCs [cont.]
Procedure: (§3) Antigen specificity score (AgSS) for IgG were calculated by subtracting the quantile of hIL-6Rα barcoded UMI counts multiplied by a penalty factor (x) from the quantile of hIL-4Rα barcoded UMI counts, AgSS=Q_hIL-4Rα-Q_hIL-6Rα^x. AgSS for IgE were calculated with a similar formula for mouse and human single cell data. For IgE scores the target antigens were either Der p1, Der p2 or Der f1 and the control was always Ole e1.
(§4) Following processing of the three single-cell libraries, the gene expression and V(D)J region sequencing data were used to subset PCs with a valid IgE constant region and detectable expression of IgE and CD79a but lacking the expression of Ms4a1 and CD19 typically found in non-PC B cells. IgE-expressing PCs were then assessed for differential expression against additional IgA, IgG, and IgM plasma cell isotypes to further characterize the unique transcriptional signature of IgE-secreting PCs. IgE-secreting PCs were then assessed for antigen specificity by comparing the normalized levels of the target antigens, namely, Der p 1, Der p 2, or Der f 1, against the normalized level of the control antigen Ole e 1. This was performed by calculating an empirical score for each target antigen and subtracting the […] with a penalty factor. The formula used to do is set forth below: […]

Der f 1 [17] = target: T1, Der f 1; test: as above
Procedure: as §3, §4

Der p 2 [18] = target: T2, Der p 2; test: as above
Procedure: as §3, §4

Ole e 1 [19] = target: T4, Ole e 1 (olive, UniProt P19963 1-145); test: barcoded-antigen count on source cell
T4 construct: Also used oligonucleotide-barcoded for cell staining; also called olive allergen; negative control allergen
T4 sequence (looked up): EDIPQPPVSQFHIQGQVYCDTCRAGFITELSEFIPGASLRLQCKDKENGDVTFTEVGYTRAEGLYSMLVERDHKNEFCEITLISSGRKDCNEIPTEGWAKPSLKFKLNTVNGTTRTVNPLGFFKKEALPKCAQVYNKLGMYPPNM

Ole e 1 [20] = target: T4, Ole e 1; test: centered log-ratio of barcode count
Source text: as §2

B1: IgE mAb 12_2 (antibody, V domains shown)
VH: QAYLQQSGAELVRPGASVKMSCKASGYTFISYNMHWVKQTRRQGLEWIGAIYPGNGDTSYNQKFKGKATLTVDKSSSTAYMQLSSLTSEDSAVYFCARWDYYGSSYGAYWGQGTLVTVSA
VL: DIQMTQSPASLSVSVGETVTITCRASENIYSNLAWYQQKQGKSPQLLVYAATNLADGVPSRFSGSGSGTQYSLKINSLQSEDFGSYYCQHFWGTPWTFGGGTKLEIK
Derf1_ab_rank (Der f 1 [1]): 0.973
Derp2_ab_rank (Der p 2 [2]): 0.453
EC50 (read off the curve) (Der f 1 [3]): ~0.1 nM
EC50 (read off the curve) (Der p 1 [4]): ~0.1 nM
EC50 (read off the curve) (Der p 2 [5]): ~0.1 nM
Derf1_ab_raw (Der f 1 [6]): 57 counts
Derp2_ab_raw (Der p 2 [7]): 11 counts
Derf1_ab_clr (Der f 1 [8]): 1.74
Derp2_ab_clr (Der p 2 [9]): 0.00487

B2: Candidate ID 13 (antibody, V domains shown)
VH: QAYLQQSGAELVRPGASVKMSCKASGYTFISYNMHWVKQTRRQGLEWIGAIYPGNGDTSYNQKFKGKATLTVDKSSSTAYMQLSSLTSEDSAVYFCARWDYYGSSYGAYWGQGTLVTVSA
VL: DIQMTQSPASLSVSVGETVTITCRASENIYSNLAWYQQKQGKSPQLLVYAATNLADGVPSRFSGSGSGTQYSLKINSLQSEDFGSYYCQHFWGTPWTFGGGTKLEIK
Normalized Barcode Count (Der p 1 [10]): 0.233
Normalized Barcode Count (Der f 1 [11]): 1.74
Normalized Barcode Count (Der p 2 [12]): 0.005
Raw Antigen Barcode Count (Der p 1 [13]): 15
Raw Antigen Barcode Count (Der f 1 [14]): 57
Raw Antigen Barcode Count (Der p 2 [15]): 11
Antigen Score (Der p 1 [16]): 0.637
Antigen Score (Der f 1 [17]): 0.973
Antigen Score (Der p 2 [18]): 0.453

B3: Candidate ID 21 (antibody, V domains shown)
VH: QVQLQQSGPELVKPGASVKISCKAPGNAFSYSWMNWVKQRPGKGLEWVGRIYPGDGDTNYNGKFMGKATLTADKSSNTAYIQLSSLTSEDSAVYFCARSGGGTLYWYFDVWGTGTTVTVSS
VL: DIVMTQSPSSLALSVGQKVTMNCRSSQSLLNSFNQKNYLAWFQQKPGQSPRLLIYFASTRESGVPDRFIGSGSGTDFTLTISSVQAEDLADYFCQQHYNTPLTFGAGTTLELK
notes: IgE PCs LN
Normalized Barcode Count (Der p 1 [10]): -0.398
Normalized Barcode Count (Der f 1 [11]): -0.795
Normalized Barcode Count (Der p 2 [12]): 4.01
Raw Antigen Barcode Count (Der p 1 [13]): 2
Raw Antigen Barcode Count (Der f 1 [14]): 1
Raw Antigen Barcode Count (Der p 2 [15]): 215
Antigen Score (Der p 1 [16]): -0.245
Antigen Score (Der f 1 [17]): -0.386
Antigen Score (Der p 2 [18]): 0.412

B4: IgE mAb 21_2 (antibody, V domains shown)
VH: QVQLQQSGPELVKPGASVKISCKAPGNAFSYSWMNWVKQRPGKGLEWVGRIYPGDGDTNYNGKFMGKATLTADKSSNTAYIQLSSLTSEDSAVYFCARSGGGTLYWYFDVWGTGTTVTVSS
VL: DIVMTQSPSSLALSVGQKVTMNCRSSQSLLNSFNQKNYLAWFQQKPGQSPRLLIYFASTRESGVPDRFIGSGSGTDFTLTISSVQAEDLADYFCQQHYNTPLTFGAGTTLELK
notes: IgE (IGHE, IGKC) from HDM-exposed mouse, LymphNode
Derf1_ab_rank (Der f 1 [1]): -0.386
Derp2_ab_rank (Der p 2 [2]): 0.412
EC50 (read off the curve) (Der p 2 [5]): ~0.2 nM
Derf1_ab_raw (Der f 1 [6]): 1 counts
Derp2_ab_raw (Der p 2 [7]): 215 counts
Olee1_ab_raw (Ole e 1 [19]): 4 counts
Derf1_ab_clr (Der f 1 [8]): -0.795
Derp2_ab_clr (Der p 2 [9]): 4.01
Olee1_ab_clr (Ole e 1 [20]): 0.826

B5: IgE mAb 1_2 (antibody, V domains shown)
VH: QIQLVQSGPELKKPGETVKISCKASGYTFTTYGMSWVKQAPGKGLKWMGWINTYSGVPTYADDFKGRFVFSLETSASTAYLQINNLKNEDTATYFCARAYYYGSSYLIWYFDVWGTGTTVTVSS
VL: NIVLTQSPASLAVSLGQRATISCRASESVDSYGNSFMHWYQQKPGQPPKLLIYLASNLESGVPARFSGSGSRTDFTLTIDPVEADDAATYYCQQNNEDPYTFGGGTKLEIK
notes: IgE (IGHE, IGKC) from HDM-exposed mouse, BoneMarrow
Derf1_ab_rank (Der f 1 [1]): 0.982
Derp2_ab_rank (Der p 2 [2]): 1
Derf1_ab_raw (Der f 1 [6]): 37 counts
Derp2_ab_raw (Der p 2 [7]): 60 counts
Olee1_ab_raw (Ole e 1 [19]): 0 counts
Derf1_ab_clr (Der f 1 [8]): 1.32
Derp2_ab_clr (Der p 2 [9]): 1.65
Olee1_ab_clr (Ole e 1 [20]): -1.12
